Test results as given in PMC4526114, “Structure and vascular function of MEKK3–cerebral cavernous malformations 2 complex” (Nature Communications, 2015).

T1: MEKK3^NPB1 (human, UniProt Q99759 1-124)
T1 construct: MEKK3 (MAP3K3), human, residues 1–124 (N-terminal helix and PB1 domain); also called N terminus of MEKK3; 6 × His–MEKK3^NPB1 (before cleavage); not shown: His6, N-terminal, cleaved
T1 sequence: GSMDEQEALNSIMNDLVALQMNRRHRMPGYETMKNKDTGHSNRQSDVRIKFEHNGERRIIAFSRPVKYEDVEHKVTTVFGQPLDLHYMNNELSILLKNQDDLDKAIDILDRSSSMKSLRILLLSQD

B1: GST–MEKK3^NPB1 (domain or fragment, human, UniProt Q99759 1-124, looked up)
chain: MDEQEALNSIMNDLVALQMNRRHRMPGYETMKNKDTGHSNRQSDVRIKFEHNGERRIIAFSRPVKYEDVEHKVTTVFGQPLDLHYMNNELSILLKNQDDLDKAIDILDRSSSMKSLRILLLSQD
notes: MEKK3 (MAP3K3), human, residues 1–124 (N-terminal helix and PB1 domain); GST-pCDF vector; also called GST–MEKK3^NPB1: 1–124
B2: CCM2^HHD (domain or fragment, human)
chain: GSSKTISESELSASATELLQDYMLTLRTKLSSQEIQQFAALLHEYRNGASIHEFCINLRQLYGDSRKFLLLGLRPFIPEKDSQHFENFLETIGVKDGRG
notes: CCM2, human, residues 283–379 (harmonin homology domain); also called CCM2 harmonin homology domain; CCM2^HHD: 283–379; source: E. coli Rosetta (DE3), purified (HisTrap, TEV cleavage, size exclusion); not shown: His6, N-terminal, cleaved

Assays:
Conditions in all cases: both partners purified
CCM2^FL = biological target: T2, CCM2^FL (human, UniProt Q9BSQ5 1-438); assay: pull-down; GST fusions of MEKK3 immobilised on glutathione Sepharose-4B beads; 5 μl bead slurry and 60 μg purified CCM2 in 500 μl, 4 °C, 2 h; 150 mM NaCl, 50 mM Tris pH 7.5, 0.1% Triton-X100; Coomassie-stained SDS–PAGE of washed beads
T2 construct: CCM2, human, residues 1–438; also called full-length CCM2; CCM2^FL: 1–438; source: purified; not shown: His tag, N-terminal, cleaved
T2 sequence (Q9BSQ5 other isoform, or with tags, fused parts or gaps): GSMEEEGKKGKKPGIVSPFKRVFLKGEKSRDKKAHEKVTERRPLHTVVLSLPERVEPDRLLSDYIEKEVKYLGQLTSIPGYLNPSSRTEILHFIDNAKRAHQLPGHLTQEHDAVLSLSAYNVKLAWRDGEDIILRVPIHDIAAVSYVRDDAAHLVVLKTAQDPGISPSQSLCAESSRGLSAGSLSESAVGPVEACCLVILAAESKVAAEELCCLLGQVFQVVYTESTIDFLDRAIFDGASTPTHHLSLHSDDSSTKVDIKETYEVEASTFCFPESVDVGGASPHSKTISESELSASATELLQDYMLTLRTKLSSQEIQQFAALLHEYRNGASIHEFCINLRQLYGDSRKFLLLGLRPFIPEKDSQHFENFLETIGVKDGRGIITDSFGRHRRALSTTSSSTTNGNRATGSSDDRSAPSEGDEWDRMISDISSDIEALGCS

MEKK3^NPB1 [1] = biological target: T1, MEKK3^NPB1; assay: ITC; CCM2^HHD injected into MEKK3^NPB1 in 20 2.5-μl injections at 25 °C; 150 mM NaCl, 50 mM HEPES pH 7.5; nano-ITC; 'observed Kd'
MEKK3^NPB1 [2] = biological target: T1, MEKK3^NPB1; assay: SEC-MALS; CCM2^HHD:MEKK3^NPB1 complex used for crystallization, 100 μl of 1.5 mg ml^-1 in 150 mM NaCl, 20 mM Tris pH 8.0, 0.02% sodium azide

Row | Binder | binding result (CCM2^FL) | Kd (MEKK3^NPB1 [1]) [µM] | stoichiometry N (MEKK3^NPB1 [2])
1 | B1 | binds | – | –
2 | B2 | – | 1.4 ± 0.4 | 1
